Read-outs that look alike come from different tables or passages of the source.
Tests used:
[1] = system: O=C(O)CCCC(=O)C(=O)O; assay: purified protein; details: Fe(II) active-site Fe(II) (MLCT transition)
[2] = biological target: T1, ethylene-forming enzyme (EFE) (Pseudomonas savastanoi, UniProt P32021); assay: anaerobic UV-vis difference titration; assay type: binding
[3] = biological target: T1, ethylene-forming enzyme (EFE); assay: anaerobic UV-vis difference titration; assay type: binding; remark: listed apart in the source

T1 sequence (P32021 whole entry): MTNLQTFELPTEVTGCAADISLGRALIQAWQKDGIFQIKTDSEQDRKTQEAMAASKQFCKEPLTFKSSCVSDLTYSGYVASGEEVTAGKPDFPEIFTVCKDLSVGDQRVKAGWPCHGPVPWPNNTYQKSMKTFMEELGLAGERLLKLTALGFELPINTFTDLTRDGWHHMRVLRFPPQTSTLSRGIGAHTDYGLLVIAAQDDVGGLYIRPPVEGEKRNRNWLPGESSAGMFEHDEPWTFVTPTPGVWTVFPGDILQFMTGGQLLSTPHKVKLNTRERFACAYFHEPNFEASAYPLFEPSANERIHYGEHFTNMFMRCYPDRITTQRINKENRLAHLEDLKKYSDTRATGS

Compound “ethylene-forming enzyme (EFE) (Pseudomonas savastanoi pv. phaseolicola)” has a Km [1] of 31 ± 4 µM and a kcat [1] of 0.00417 ± 0.000333 s⁻¹.

With `O=C(O)CCC(=O)C(=O)O` [2OG, 2-oxoglutarate] the Kd [2] was 25 ± 7 µM.

Compound `N=C(N)NCCC[C@H](N)C(=O)O` [L-Arg, L-arginine] has a Kd [3] of 34 ± 25 µM.
